B1: t-PA (protein)
chain: SYQVICRDEKTQMIYQQHQSWLRPVLRSNRVEYCWCNSGRAQCHSVPVKSCSEPRCFNGGTCQQALYFSDFVCQCPEGFAGKCCEIDTRATCYEDQGISYRGTWSTAESGAECTNWNSSALAQKPYSGRRPDAIRLGLGNHNYCRNPDRDSKPWCYVFKAGKYSSEFCSTPACSEGNSDCYFGNGSAYRGTHSLTESGASCLPWNSMILIGKVYTAQNPSAQALGLGKHNYCRNPDGDAKPWCHVLKNRRLTWEYCDVPSCSTCGLRQYSQPQFRIKGGLFADIASHPWQAAIFAKHRRSPGERFLCGGILISSCWILSAAHCFQERFPPHHLTVILGRTYRVVPGEEEQKFEVEKYIVHKEFDDDTYDNDIALLQLKSDSSRCAQESSVVRTVCLPPADLQLPDWTECELSGYGKHEALSPFYSERLKEAHVRLYPSSRCTSQHLLNRTVTDNMLCAGDTRSGGPQANLHDACQGDSGGPLVCLNDGRMTLVGIISWGLGCGQKDVPGVYTKVTNYLDWIRDNMRP
B2: factor XIIa (protein)
chain: IPPWEAPKEHKYKAEEHTVVLTVTGEPCHFPFQYHRQLYHKCTHKGRPGPQPWCATTPNFDQDQRWGYCLEPKKVKDHCSKHSPCQKGGTCVNMPSGPHCLCPQHLTGNHCQKEKCFEPQLLRFFHKNEIWYRTEQAAVARCQCKGPDAHCQRLASQACRTNPCLHGGRCLEVEGHRLCHCPVGYTGAFCDVDTKASCYDGRGLSYRGLARTTLSGAPCQPWASEATYRNVTAEQARNWGLGGHAFCRNPDNDIRPWCFVLNRDRLSWEYCDLAQCQTPTQAAPPTPVSPRLHVPLMPAQPAPPKPQPTTRTPPQSQTPGALPAKREQPPSLTRNGPLSCGQRLRKSLSSMTRVVGGLVALRGAHPYIAALYWGHSFCAGSLIAPCWVLTAAHCLQDRPAPEDLTVVLGQERRNHSCEPCQTLAVRSYRLHEAFSPVSYQHDLALLRLQEDADGSCALLSPYVQPVCLPSGAARPSETTLCQVAGWGHQFEGAEEYASFLQEAQVPFLSLERCSAPDVHGSSILPGMLCAGFLEGGTDACQGDSGGPLVCEDQAAERRLTLQGIISWGSGCGDRNKPGVYTDVAYYLAWIREHTVS
B3: plasmin (protein)
chain: KVYLSECKTGNGKNYRGTMSKTKNGITCQKWSSTSPHRPRFSPATHPSEGLEENYCRNPDNDPQGPWCYTTDPEKRYDYCDILECEEECMHCSGENYDGKISKTMSGLECQAWDSQSPHAHGYIPSKFPNKNLKKNYCRNPDRELRPWCFTTDPNKRWELCDIPRCTTPPPSSGPTYQCLKGTGENYRGNVAVTVSGHTCQHWSAQTPHTHNRTPENFPCKNLDENYCRNPDGKRAPWCHTTNSQVRWEYCKIPSCDSSPVSTEQLAPTAPPELTPVVQDCYHGDGQSYRGTSSTTTTGKKCQSWSSMTPHRHQKTPENYPNAGLTMNYCRNPDADKGPWCFTTDPSVRWEYCNLKKCSGTEASVVAPPPVVLLPDVETPSEEDCMFGNGKGYRGKRATTVTGTPCQDWAAQEPHRHSIFTPETNPRAGLEKNYCRNPDGDVGGPWCYTTNPRKLYDYCDVPQCAAPSFDCGKPQVEPKKCPGRVVGGCVAHPHSWPWQVSLRTRFGMHFCGGTLISPEWVLTAAHCLEKSPRPSSYKVILGAHQEVNLEPHVQEIEVSRLFLEPTRKDIALLKLSSPAVITDKVIPACLPSPNYVVADRTECFITGWGETQGTFGAGLLKEAQLPVIENKVCNRYEFLNGRVQSTELCAGHLAGGTDSCQGDSGGPLVCFEKDKYILQGVTSWGLGCARPNKPGVYVRVSRFVTWIEGVMRNN
B4: factor VIIa (protein)
chain: ANAFLEELRPGSLERECKEEQCSFEEAREIFKDAERTKLFWISYSDGDQCASSPCQNGGSCKDQLQSYICFCLPAFEGRNCETHKDDQLICVNENGGCEQYCSDHTGTKRSCRCHEGYSLLADGVSCTPTVEYPCGKIPILEKRNASKPQGRIVGGKVCPKGECPWQVLLLVNGAQLCGGTLINTIWVVSAAHCFDKIKNWRNLIAVLGEHDLSEHDGDEQSRRVAQVIIPSTYVPGTTNHDIALLRLHQPVVLTDHVVPLCLPERTFSERTLAFVRFSLVSGWGQLLDRGATALELMVLNVPRLMTQDCLQQSRKVGDSPNITEYMFCAGYSDGSKDSCKGDSGGPHATHYRGTWYLTGIVSWGQGCATVGHFGVYTRVSQYIEWLQKLMRSEPRPGVLLRAPFP
B5: factor Xa (protein)
chain 1: ANSFLEEMKKGHLERECMEETCSYEEAREVFEDSDKTNEFWNKYKDGDQCETSPCQNQGKCKDGLGEYTCTCLEGFEGKNCELFTRKLCSLDNGDCDQFCHEEQNSVVCSCARGYTLADNGKACIPTGPYPCGKQTLER
chain 2: IVGGQECKDGECPWQALLINEENEGFCGGTILSEFYILTAAHCLYQAKRFKVRVGDRNTEQEEGGEAVHEVEVVIKHNRFTKETYDFDIAVLRLKTPITFRMNVAPACLPERDWAESTLMTQKTGIVSGFGRTHEKGRQSTRLKMLEVPYVDRNSCKLSSSFIITQNMFCAGYDTKQEDACQGDSGGPHVTRFKDTYFVTGIVSWGEGCARKGKYGIYTKVTAFLKWIDRSMKTRGLPKAKSHAPEVITSSPLK

Biological target: T1, Ir-CPI (Ixodes ricinus Contact Phase Inhibitor), recombinant
T1 chain: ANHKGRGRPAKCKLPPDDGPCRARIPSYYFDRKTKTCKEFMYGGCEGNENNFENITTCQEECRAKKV

Row | Protein | amidolytic activity on chromogenic substrate (protease:Ir-CPI 1:5) | activation of factor XI into factor XIa by factor XIIa (reconstituted system, purified factors, chromogenic substrate) | activation of prekallikrein into kallikrein by factor XIIa (reconstituted system, purified factors, chromogenic substrate)
1 | B1 | The results obtained did not show any effect of Ir-CPI protein on the amidolytic activity of these factors | – | –
2 | B2 | The results obtained did not show any effect of Ir-CPI protein on the amidolytic activity of these factors | Ir-CPI inhibits ... the activation of factor XI into factor XIa by factor XIIa | Ir-CPI inhibits the activation of prekallikrein into kallikrein by factor XIIa
3 | B3 | The results obtained did not show any effect of Ir-CPI protein on the amidolytic activity of these factors | – | –
4 | B4 | The results obtained did not show any effect of Ir-CPI protein on the amidolytic activity of these factors | – | –
5 | B5 | The results obtained did not show any effect of Ir-CPI protein on the amidolytic activity of these factors | – | –

From US20160046728
